Results on 27 molecules are retold here after patent US20090232804A1 (GLENMARK PHARMACEUTICALS S A, published 2009).

Where a chain is given by its changes, count along the chain named. “And” between values parts separate entries of the source, which are not always exact repeats. Equal values may be shown once.

As a reminder, the Ki is a dissociation constant, usually derived from enzyme kinetics or from competition with a known ligand. A high value points to lower affinity. The EC50 (read off the curve) is the concentration giving half of the maximal effect. One may read the Kd as the equilibrium constant for the complex coming apart. The EC50 is the concentration that produces a half-maximal response. Read a low EC50 as an effect from little substance.

The target of experiment [1] is His tagged A1 domain of human von Willebrand factor (residues 499-729), expressed in E. coli (human) (UniProt P04275). Description: competition with 100 pM Eu-NMC-4 chimera on plate-coated human His-A1, DELFIA, Cheng-Prusoff.
For experiment [2] the target is unchanged. Briefly: DELFIA competitive binding format (time-resolved fluorescence): Eu-NMC-4 chimera at 100 pM on wells coated with His-hA1, unlabelled AJW200 varied; EC50 of the enhancement of Eu-NMC-4 binding.
The target of experiment [3] is purified human von Willebrand factor (vWF) (human) (UniProt P04275). Description: cell-based or functional assay.
Experiment [4] concerns the target His tagged A1 domain of human von Willebrand factor (residues 499-729), expressed in E. coli (human) (UniProt P04275). Description: equilibrium binding (Scatchard), Eu-labelled antibody on direct-coated His-A1, DELFIA, 37 °C, n = 10.
Experiment [5] shares this target. Briefly: homologous competition with Eu-NMC-4 chimera on plate-coated His-A1, DELFIA, Cheng-Prusoff, n = 4.
For experiment [6] the target is unchanged. Briefly: ratio of the kinetic constants (row printed as 'kon/koff'), DELFIA, 37 °C.
Experiment [7] shares this target. Briefly: DELFIA competitive binding (time-resolved fluorescence): Eu-NMC-4 chimera at 100 pM on wells coated with His-hA1, unlabelled competitor antibody varied (homologous competition).
For experiment [8] the target is unchanged. Briefly: homologous competition with 100 pM Eu-NMC-4 chimera on plate-coated human His-A1, DELFIA, Cheng-Prusoff.
For experiment [9] the target is unchanged. Description: calculated from koff, DELFIA kinetics on plate-coated His-A1, 37 °C.
Experiment [10] addresses T1, purified human von Willebrand factor (vWF) (human, UniProt P04275 764-2813). Description: cell-based or functional assay.
Experiment [11] has as its target T1, purified human von Willebrand factor …. Description: cell-based or functional assay. This is another data set of the same source.
For experiment [12] the target is unchanged. Description: cell-based or functional assay. The source holds these as a separate data set.
For experiment [13] the target is unchanged. Briefly: cell-based or functional assay. The source holds these as a separate data set.

The molecule “NMC-4 monoclonal antibody (murine anti-vWF antibody, IgG1κ)” returned a Ki in experiment [1] of 0.6 nM.

For the molecule “AJW200 reference antibody (anti-vWF A1 domain, cloned with human IgG1(dm) constant region)”, the EC50 (read off the curve) in experiment [2] was found to be 0.2 nM. Further, the EC50, ristocetin-induced platelet agglutination assay in [3] was 0.27 nM. With “NMC-4-human Fc chimera (NMC-4 variable regions on human IgG1(dm) and human kappa constant regions) (antibody)”, the Kd worked out at 0.316 nM in [4] and 0.39 nM in experiment [6]. Besides, the figures for the Ki in experiment [5] and in [8] were 0.275 nM and 0.28 nM, respectively. Moreover, the IC50 (read off the curve) in experiment [7] was 0.6 nM. In experiment [9], the Dissociation half-life is 44 min.

B1: humanized NMC-4 variant H8, L5 (IgG1) (antibody, V domains shown)
VH: QVQLQESGPGLVKPSETLSLTCTVSGFSLTDYGVDWIRQPPGKGLEWIGMIWGDGSTDYNSALKSRLTISKDNSKNQFSLKLSSVTAADTAVYYCVRDPADYGNYDYALDYWGQGTSLTVSS
VL: DIQMTQSPSSLSASVGDRVTITCSASQDINKYLNWYQQKPGKAVKLLIFYTSSLHSGVPSRFSGSGSGTDYTLTISSLQPEDIATYYCQQYEKLPWTFGQGTKVEIK
With B1, the “fold change of EC50 against the other variants” value in experiment [10] was 1.5 fold. Further, in experiment [11], the “EC50” value came out at 0.28 nM.

B2: humanized NMC-4 variant H4, L5 (IgG1) (antibody, V domains shown)
VH: B1 VH with F78V, V96A
VL: B1 VL
Regarding B2, in [11], the “EC50” value is 0.15 nM.

B3: humanized NMC-4 variant H13, L9 (IgG1) (antibody, V domains shown)
VH: B1 VH with F27G, L29I, T30S, V34W, L67V, K71V, N73T, V96A, S117L, L118V
VL: B1 VL with V44P, F49Y, Y71F, I83F
As for B3, the “EC50 (nM), platelet agglutination assay” value in experiment [12] was determined as 0.16 nM.

B4: humanized NMC-4 variant H2, L7 (IgG1) (antibody, V domains shown)
VH: B1 VH with F78V
VL: B1 VL with Y71F
Take B4: the “EC50” value in [11] was 0.15 nM.

B5: humanized NMC-4 variant H9, L6 (IgG1) (antibody, V domains shown)
VH: B1 VH with L67V, K71V, N73T, V96A, S117L, L118V
VL: B1 VL with F49Y
On to B5, for which the response in [11] was half-maximal at 0.13 nM (EC50).

B6: humanized NMC-4 variant H2, L4 (IgG1) (antibody, V domains shown)
VH: B1 VH with F78V
VL: B1 VL with V44P
Regarding B6, it took 0.14 nM to reach a half-maximal effect in experiment [11] (EC50).

B7: humanized NMC-4 variant H14, L9 (IgG1) (antibody, V domains shown)
VH: QVQLQESGPGLVKPSETLSLTCTVSGGSISDYGWDWIRQPPGKGLEWIGMIWGDGSTDYNPSLKSRVTISVDTSKNQFSLKLSSVTAADTAVYYCARDPADYGNYDYALDYWGQGTLVTVSS
VL: B1 VL with V44P, F49Y, Y71F, I83F
With B7, the “EC50 (nM), platelet agglutination assay” value in experiment [12] was 0.13 nM.

B8: humanized NMC-4 variant H9, L9 (CDR-grafted), IgG1 (antibody, V domains shown)
VH: B1 VH with L67V, K71V, N73T, V96A, S117L, L118V
VL: B1 VL with V44P, F49Y, Y71F, I83F
For the molecule B8, in [13], the “Platelet agglutination EC50, single experiment” value is 1.3 nM and the “Platelet agglutination EC50 mean value (from 2 independent expts.)” value (shortened to “Platelet agglutination EC50 mean value”) worked out at 1.3 nM. Further, the response in experiment [11] was half-maximal at 0.12 nM (EC50). Besides, the “EC50 (nM), platelet agglutination assay” value in [12] is 0.12 nM.

B9: humanized NMC-4 variant H9L9 IgG4 (antibody, V domains shown)
VH: B1 VH with L67V, K71V, N73T, V96A, S117L, L118V
VL: B1 VL with V44P, F49Y, Y71F, I83F
As for B9, in [13], the “Platelet agglutination EC50, single experiment” value is 1.3 nM and 1.5 nM; the “Platelet agglutination EC50 mean value” value is 1.4 nM.

B10: humanized NMC-4 variant H7, L5 (IgG1) (antibody, V domains shown)
VH: B1 VH with N73T, F78V
VL: B1 VL
On to B10, for which, in experiment [11], the “EC50” value was 0.16 nM.

B11: humanized NMC-4 variant H9, L4 (IgG1) (antibody, V domains shown)
VH: B1 VH with L67V, K71V, N73T, V96A, S117L, L118V
VL: B1 VL with V44P
In the case of B11, the response in experiment [11] was half-maximal at 0.11 nM (EC50).

B12: humanized NMC-4 variant H5, L5 (IgG1) (antibody, V domains shown)
VH: B1 VH with L67V, F78V
VL: B1 VL
B12: the “EC50” value in [11] is 0.18 nM.

B13: humanized NMC-4 variant H14, L10, IgG1 (antibody, V domains shown)
VH: B7 VH
VL: B1 VL with S24Q, N30S, K31N, V44P, F49Y, Y71F, I83F
As for B13, in experiment [13], the “Platelet agglutination EC50, single experiment” value is 1.1 nM and 1.3 nM; the “Platelet agglutination EC50 mean value” value is 1.2 nM. Moreover, in [12], the “EC50 (nM), platelet agglutination assay” value stood at 0.22 nM.

B14: humanized NMC-4 variant H9, L7 (IgG1) (antibody, V domains shown)
VH: B1 VH with L67V, K71V, N73T, V96A, S117L, L118V
VL: B1 VL with Y71F
Regarding B14, the “EC50” value in experiment [11] was 0.11 nM.

B15: humanized NMC-4 variant H13, L10 (IgG1) (antibody, V domains shown)
VH: B7 VH with P61S, S62A
VL: B1 VL with S24Q, N30S, K31N, V44P, F49Y, Y71F, I83F
Turning to B15, the “EC50 (nM), platelet agglutination assay” value in experiment [12] came out at 0.2 nM.

B16: humanized NMC-4 variant H14-L10, IgG4 (antibody, V domains shown)
VH: B7 VH
VL: B1 VL with S24Q, N30S, K31N, V44P, F49Y, Y71F, I83F
On to B16, for which, in [13], the “Platelet agglutination EC50, single experiment” value is 2.3 nM and 2 nM; the “Platelet agglutination EC50 mean value” value worked out at 2.15 nM.

B17: humanized NMC-4 variant H9, L5 (IgG1) (antibody, V domains shown)
VH: B1 VH with L67V, K71V, N73T, V96A, S117L, L118V
VL: B1 VL
For the molecule B17, in [11], a half-maximal effect (EC50) was put at 0.14 nM.

B18: humanized NMC-4 variant H12, L9 (IgG1) (antibody, V domains shown)
VH: B7 VH with W34V, P61S, S62A
VL: B1 VL with V44P, F49Y, Y71F, I83F
As for B18, in experiment [12], the “EC50 (nM), platelet agglutination assay” value was 0.29 nM.

B19: humanized NMC-4 variant H2, L6 (IgG1) (antibody, V domains shown)
VH: B1 VH with F78V
VL: B1 VL with F49Y
As to B19, the midpoint of the response in [11], the EC50, lay at 0.14 nM.

B20: humanized NMC-4 variant H9, L8 (IgG1) (antibody, V domains shown)
VH: B1 VH with L67V, K71V, N73T, V96A, S117L, L118V
VL: B1 VL with V44P, F49Y, Y71F
On to B20, for which, in experiment [11], the “EC50” value turned out to be 0.08 nM.

B21: humanized NMC-4 variant H6, L5 (IgG1) (antibody, V domains shown)
VH: B1 VH with K71V, F78V
VL: B1 VL
In the case of B21, it took 0.18 nM to reach a half-maximal effect in [11] (EC50).

B22: humanized NMC-4 variant H2, L5 (IgG1) (antibody, V domains shown)
VH: B1 VH with F78V
VL: B1 VL
Turning to B22, in [11], it took 0.13 nM to reach a half-maximal effect (EC50).

B23: NMC-4 monoclonal antibody (murine anti-vWF antibody, IgG1κ) (antibody, V domains shown)
VH: QVQLKESGPGLVAPSQSLSITCTVSGFSLTDYGVDWVRQPPGKGLEWLGMIWGDGSTDYNSALKSRLSITKDNSKSQVFLKMNSLQTDDTARYYCVRDPADYGNYDYALDYWGQGTSVTVSS
VL: DIQMTQSPSSLSASLGDRVTISCSASQDINKYLNWYQQKPDGAVKLLIFYTSSLHSGVPSRFSGSGSGTDYSLTISNLEPEDIATYYCQQYEKLPWTFGGGTKLEVKR
As for B23, in experiment [10], the “EC50, ristocetin-induced platelet agglutination assay” value came out at 0.17 nM.

B24: humanized NMC-4 variant H14, L11 (IgG1) (antibody, V domains shown)
VH: B7 VH
VL: DIQMTQSPSSLSASVGDRVTITCQASQDISNYLNWYQQKPGKAPKLLIYDASNLETGVPSRFSGSGSGTDFTLTFSSLQPEDFATYYCQQYEKLPWTFGQGTKVEIK
For the molecule B24, the “fold lower activity compared to chimera, platelet agglutination assay” value in experiment [10] came to 10 fold. For the same molecule, the “EC50 (nM), platelet agglutination assay” value in [12] worked out at 1.63 nM.
